The values that follow come from patent US20250326860A1.

Experiment [1] has as its target cynomolgus monkey CD20 on B cells (cynomolgus monkey) (UniProt M4ZHZ6). Put plainly: flow cytometry, monkey B cells. (In general: In flow cytometry, cells or beads pass a laser one at a time.)
Experiment [2] deals with human CD20 on cells (human B cells; Raji, SU-DHL-8, SU-DHL-4, A3KAW, NAMALWA) (human) (UniProt P11836). Put plainly: binding to Raji cells.
Experiment [3] concerns the target human CD3 on cells (Jurkat cells, human T cells) (human) (UniProt P07766). Briefly: binding to human CD8+ T cells.
The target is the same in experiment [4]. Put plainly: binding to human CD4+ T cells.
Experiment [5] has as its target human CD20 on cells (human B cells; Raji, SU-DHL-8, SU-DHL-4, A3KAW, NAMALWA) (human) (UniProt P11836). Briefly: flow cytometry, human B cells.
The target of experiment [6] is human CD3 on cells (Jurkat cells, human T cells) (human) (UniProt P07766). Briefly: binding to human CD3+ T cells.
The target in experiment [7] is human CD20 on cells (human B cells; Raji, SU-DHL-8, SU-DHL-4, A3KAW, NAMALWA) (human) (UniProt P11836). Briefly: binding to human B cells.
Experiment [8] addresses human CD3δε (human) (UniProt P07766). Put plainly: binding to CD3δ/ε protein dimer.

A value given as a limit tells only on which side of the number the result lay.

Chain of human CD3 on cells (Jurkat cells, human T cells) (human) (P07766 23-207): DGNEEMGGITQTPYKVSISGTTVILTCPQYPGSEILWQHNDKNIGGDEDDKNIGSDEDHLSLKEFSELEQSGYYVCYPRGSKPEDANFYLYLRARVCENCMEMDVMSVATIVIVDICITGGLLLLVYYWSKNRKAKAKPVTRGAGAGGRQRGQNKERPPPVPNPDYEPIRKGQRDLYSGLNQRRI
Chain of human CD20 on cells (human B cells; Raji, SU-DHL-8, SU-DHL-4, A3KAW, NAMALWA) (human) (P11836 whole entry): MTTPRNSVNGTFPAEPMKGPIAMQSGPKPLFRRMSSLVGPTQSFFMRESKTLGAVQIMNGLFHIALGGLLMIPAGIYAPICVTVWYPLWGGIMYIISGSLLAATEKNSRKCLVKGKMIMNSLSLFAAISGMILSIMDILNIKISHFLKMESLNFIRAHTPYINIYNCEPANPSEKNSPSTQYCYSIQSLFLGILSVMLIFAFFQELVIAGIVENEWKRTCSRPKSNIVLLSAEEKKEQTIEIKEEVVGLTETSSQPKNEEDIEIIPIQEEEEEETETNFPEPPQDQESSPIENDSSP

With IgG1 isotype control antibody, the max MFI in experiment [1] stood at 60.4 MFI; in experiment [5] it was 1650 MFI. Besides, the EC50 (commonly the concentration at which the effect is half-maximal) in experiment [2] was above 8 µM; in experiment [3], above 2 µM; in experiment [4], above 2 µM.

On to Plamotamab analog (bispecific antibody), for which the concentration for a half-maximal effect (EC50) in experiment [6] turned out to be 0.0118 µM; in experiment [7] it was 0.2 µM; in experiment [8] it was 0.0021 µM; in experiment [2], 0.135 µM; in experiment [3], 0.0101 µM; in experiment [4] it was 0.0131 µM.
